Data from patent US20120288494A1 (published 2012).
Like-named read-outs stand apart in the source and are kept apart here. Each block holds one binder with its values, some of them ahead of it.

B1: IL-12 (ligand)
chain 1: IWELKKDVYVVELDWYPDAPGEMVVLTCDTPEEDGITWTLDQSSEVLGSGKTLTIQVKEFGDAGQYTCHKGGEVLSHSLLLLHKKEDGIWSTDILKDQKEPKNKTFLRCEAKNYSGRFTCWWLTTISTDLTFSVKSSRGSSDPQGVTCGAATLSAERVRGDNKEYEYSVECQEDSACPAAEESLPIEVMVDAVHKLKYENYTSSFFIRDIIKPDPPKNLQLKPLKNSRQVEVSWEYPDTWSTPHSYFSLTFCVQVQGKSKREKKDRVFTDKTSATVICRKNASISVRAQDRYYSSSWSEWASVPCS
chain 2: RNLPVATPDPGMFPCLHHSQNLLRAVSNMLQKARQTLEFYPCTSEEIDHEDITKDKTSTVEACLPLELTKNESCLNSRETSFITNGSCLASRKTSFMMALCLSSIYEDLKMYQVEFKTMNAKLLMDPKRQIFLDQNMLAVIDELMQALNFNSETVPQKSSLEEPDFYKTKIKLCILLHAFRIRAVTIDRVMSYLNAS

Columns and labels:
Y61 L50Y = test: kinetic binding
78-34 = test: kinetic binding
Y61 L94Y = test: kinetic binding
IL-12 [1] = molecular target: B1; test: kinetic binding
IL-12 [2] = molecular target: B1; test: receptor binding assay (RBA)
human IL-12 p70 [3] = molecular target: T1, human IL-12 p70 (UniProt P29460 23-328; P29459 23-219); test: kinetic binding
T1 chain 1: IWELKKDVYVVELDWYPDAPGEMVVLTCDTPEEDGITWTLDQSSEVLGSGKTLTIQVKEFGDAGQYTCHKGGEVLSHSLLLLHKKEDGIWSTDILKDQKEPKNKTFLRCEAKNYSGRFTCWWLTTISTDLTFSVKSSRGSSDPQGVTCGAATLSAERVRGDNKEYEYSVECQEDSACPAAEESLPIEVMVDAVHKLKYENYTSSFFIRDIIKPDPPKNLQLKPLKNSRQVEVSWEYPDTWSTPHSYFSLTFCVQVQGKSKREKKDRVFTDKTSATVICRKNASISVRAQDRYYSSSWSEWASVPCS
T1 chain 2: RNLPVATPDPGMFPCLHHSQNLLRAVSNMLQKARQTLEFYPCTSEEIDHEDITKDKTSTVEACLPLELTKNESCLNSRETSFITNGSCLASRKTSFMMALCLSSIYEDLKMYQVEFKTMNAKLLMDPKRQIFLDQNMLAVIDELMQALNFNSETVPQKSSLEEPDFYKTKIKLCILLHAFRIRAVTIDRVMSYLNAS

human IL-12 p70 [4] = molecular target: T1, human IL-12 p70; test: receptor binding assay (RBA)
human IL-12 p70 [5] = molecular target: T1, human IL-12 p70; test: receptor binding assay (RBA)

Binder: B1
Kd (Y61 L50Y): 0.138 nM
koff (78-34): 0.0164 s⁻¹
Kd (Y61 L94Y): 0.341 nM

Kd (IL-12 [1]): 0.604 nM
IC50 (IL-12 [2]): 0.016 nM
B2: Y61 (antibody, V domains shown)
VH: QVQLVQSGGGVVQPGRSLRLSCAASGFTFSSYGMHWVRQAPGKGLEWVAFIRYDGSNKYYADSVKGRFTISRDNSKNTLYLQMKSLRAEDTAVYYCKTHGSHDNWGQGTMVTVSS
VL: SYVLTQPPSVSGTPGQRVTISCSGGRSNIGSNTVKWYQQLPGTAPKLLIYGNDQRPSGVPDRFSGSKSGTSASLAITGVQAEDEADYYCQSYDRGTHPALLFGTGTKVTVLG

koff (human IL-12 p70 [3]): 0.00067 s⁻¹
IC50 (human IL-12 p70 [4]): 0.04 nM
B3: 103-14 (antibody, V domains shown)
VH: QVQLVQSGGGVVQPGRSLRLSCAASGFTFSSYGMHWVRQAPGKGLEWVAFIRYDGSNKYYADSVKGRFTISRDNSKNTLYLQMKSLRAEDTAVYYCKTHGSHDNWGQGTMVTVSS
VL: SYVLTQPPSVSGTPGQRVTISCSGGRSNIGSNTVKWYQQLPGTAPKLLIYGNDQRPSGVPDRFSGSKSGTSASLAITGVQAEDEADYYCQSYDRGFTGSMVFGTGTKVTVL

IC50 (human IL-12 p70 [5]): 0.05 nM
B4: J695 (antibody, V domains shown)
VH: QVQLVESGGGVVQPGRSLRLSCAASGFTFSSYGMHWVRQAPGKGLEWVAFIRYDGSNKYYADSVKGRFTISRDNSKNTLYLQMNSLRAEDTAVYYCKTHGSHDNWGQGTMVTVSS
VL: QSVLTQPPSVSGAPGQRVTISCSGSRSNIGSNTVKWYQQLPGTAPKLLIYYNDQRPSGVPDRFSGSKSGTSASLAITGLQAEDEADYYCQSYDRYTHPALLFGTGTKVTVLG
